These results are taken from the supplement of paper PMC9170038.

The series has as its system MS2 coat protein. Briefly: apparent KD of MS2 coat protein; designed switch direction (-1 OFF switch, 1 ON switch): 1; higher = weaker reporter binding. The essentials: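 Stalled E. coli RNA polymerase transcribed designed RNA switches on Illumina chips, which were then titrated with SNAP-549-labelled MS2 coat protein, doubling from 0.7 or 1.5 nM to 3 µM. Steps lasted from 0.8–1.5 h at the lowest concentration to 10–20 min at the highest. The apparent KD is each design's median over clusters of curve-fitted normalised fluorescence.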

Setting [1] is: input ligand: microRNA oligo, concentration not stated.
Setting [2] is: Eterna round: R95, input ligand: FMN 200 uM.
The mark [3] stands for this setting: Eterna round: R95, input ligand: microRNA oligo, concentration not stated.
The mark [4] stands for this setting: Eterna round: R95, input ligand: none.

For “GCCAACUCAUGAGGAUAUGGCACCUUAUUGGUGCCAGAAGGCAUGUCAAUUGACAUGAGGAUCACCCAUGUAUUAUAGUUGGCA [Fiskers NG1ss - 22] (Eterna round: R96, puzzle: Same State NG 1)”, the “apparent KD of MS2 coat protein” value was 62.5 nM (input ligand: FMN 200 uM), 267 nM under setting [1] and 489 nM (input ligand: none).

“GGUCGGACAUGAGGAUCACCCAUGUGGUGAGCGGAAACGCCAUAGGAUAUCUGUCCGAAAAGGUCAGAGAAGGGUGAACCGACC [Fiskers NG3ss - 68] (Eterna round: R96, puzzle: Same State NG 3)”: the “apparent KD of MS2 coat protein” value came out at 184 nM (input ligand: FMN 200 uM), 311 nM under setting [1] and 135 nM (input ligand: none).

“UAUGACUUACAAGGAUAUUAAUAACAUGAGGAUCACCCAUGUGGCUGUGAGAGUUAGAUAAGCUAUAAGAAGGUGUGUGUGUUU [JR_SSNG2_Sub094] (Eterna round: R96, puzzle: Same State NG 2)”: the “apparent KD of MS2 coat protein” value (input ligand: FMN 200 uM) was found to be 62.7 nM, the “apparent KD of MS2 coat protein” value under setting [1] was 133 nM and the “apparent KD of MS2 coat protein” value (input ligand: none) is 173 nM.

On to “ACGCAGCUGGGUGAGGAUAUCGGUGGUAAAACAUGAGGAUCACCCAUGUCCGAAGCUCGGACUUCCGAGAAGGCGCCCAACUGCA [Ercelama] (puzzle: Same State 2)”, for which the “apparent KD of MS2 coat protein” value reads like this: under setting [2], 12.9 nM; under setting [3], 55.1 nM; under setting [4], 70.9 nM.

As for “GCCGCGUUUCGCGCCUACAUGAGGAUCACCCAUGUUUGUGGGCAGGAUAUCGUCCGCUCUGCGGGCGAGAAGGGCUGUUGUGGU [salish99_SSNG3_R04_026] (Eterna round: R96, puzzle: Same State NG 3)”, the “apparent KD of MS2 coat protein” value under setting [1] was found to be 40.9 nM.

For “UCUAUUGUGGUAGGAUAUCUAGGAUAUGGGAAGAGCUAAGCUUGGAAGUCACUUCACCCAGAAGGAGAGAAGGACCACACACUU [pwkr ssNG2 2FMN + F9.8] (Eterna round: R96, puzzle: Same State NG 2)”, the “apparent KD of MS2 coat protein” value (input ligand: FMN 200 uM) turned out to be 564 nM, the “apparent KD of MS2 coat protein” value under setting [1] amounted to 121 nM and the “apparent KD of MS2 coat protein” value (input ligand: none) is 225 nM.

Consider “AGUCCAGCCUGAGCUGGACAAAAGCAUGUACAUGAGGAUCACCCAUGUCAUGUACAAGCUUUUUGUUCGUCUUAAUA [Zipper 49 - 13] (puzzle: Sensor for hsa-mir-208a)”, for which the “apparent KD of MS2 coat protein” value turned out to be 258 nM under setting [2], 14.6 nM under setting [3] and 350 nM under setting [4].

For the sequence “GUUACAUGAGGAUCACCCAUGUAUGUGUGGGAGUAAGUGUCUUAGGAUAUCUAGUAUUUUAUUUAAGAGAAGGAAGAUUGUUGU [JMF's solution 59] (Eterna round: R96, puzzle: Same State NG 3)”, the “apparent KD of MS2 coat protein” value runs as follows: (input ligand: FMN 200 uM) 130 nM; under setting [1], 93.7 nM; (input ligand: none) 112 nM.

In the case of “ACAUGAGGAUCACCCAUGUAUGCUCAGGAAACUGUGCAGCAUGAGGAUAUGGAUCCUAAUUGGAUCCAGAAGGCGUGAAUUAUU [Fiskers NG3ss - 25] (Eterna round: R96, puzzle: Same State NG 3)”, the “apparent KD of MS2 coat protein” value came out at 507 nM (input ligand: FMN 200 uM), 692 nM under setting [1] and 2520 nM (input ligand: none).

As to “GGACGUCAUCUCAAUGAUUAAACAUGAGGAUCACCCAUGUCACAGGAUAUGGAUCCUAAUUGGAUCCAGAAGGGUGUGACGUCC [Fiskers NG3ss - 44] (Eterna round: R96, puzzle: Same State NG 3)”, the “apparent KD of MS2 coat protein” value is, setting by setting: (input ligand: FMN 200 uM) 121 nM; under setting [1], 98.2 nM; (input ligand: none) 148 nM.

Regarding “AAACACAUGAGGAUCACCCAUGUAGCGCCAUUAAAGCGCACAUAGGAUAUCCGGUCCUAAAGACCGGAGAAGGGUGAAAGAAAA [Zara] (Eterna round: R96, puzzle: Same State NG 3)”, the “apparent KD of MS2 coat protein” value (input ligand: FMN 200 uM) turned out to be 54.8 nM, the “apparent KD of MS2 coat protein” value under setting [1] amounted to 76.2 nM and the “apparent KD of MS2 coat protein” value (input ligand: none) came out at 121 nM.

Turning to “UGUUGUUAAUUAGGAUAUGGGCACAUGAGGAUCACCCAUGUAUUGUCGAUGCUAUGUGGACACGUUUAGAAGGAAUGGCUAACA [SameState NG2 #91] (Eterna round: R96, puzzle: Same State NG 2)”, the “apparent KD of MS2 coat protein” value is, setting by setting: (input ligand: FMN 200 uM) 64.4 nM; under setting [1], 55.4 nM; (input ligand: none) 64.8 nM.

Consider “GUGCUCGUGUGAGGAUAUGCUUCCGUUUCGGCUGCAGAAGGUACUAUUAUACAUGAGGAUCACCCAUGUCUCUUUUCUUCGGUG [salish99_SSNG1_r04_912] (Eterna round: R96, puzzle: Same State NG 1)”, for which the “apparent KD of MS2 coat protein” value under setting [1] worked out at 22.8 nM.

“GGAAUAUUUACAGGAUAUGAGUUGUAAAGUCGAUCAGAAGGGUAGGUGUUUUGCACGGUGUGUUACAUGAGGAUCACCCAUGUU [SameState NG1 #22] (Eterna round: R96, puzzle: Same State NG 1)”: the “apparent KD of MS2 coat protein” value was found to be 74.1 nM (input ligand: FMN 200 uM), 66.2 nM under setting [1] and 123 nM (input ligand: none).

As to “UAACAGUACAAUUUAGAUCUACAUGAGGAUCACCCAUGUACUGAGGAUAUCAGCUCGUUUAGAGCUGAGAAGGCAGAAGAACUA [SSNG3/11-A3] (Eterna round: R96, puzzle: Same State NG 3)”, the “apparent KD of MS2 coat protein” value runs as follows: (input ligand: FMN 200 uM) 39.7 nM; under setting [1], 154 nM; (input ligand: none) 218 nM.

In the case of “UGUUGUAUUACAGGAUAUCUAUUAGAUUUAUUUAGAGAAGGGUAUUCACAUGAGGAUCACCCAUGUAUAUACGAGGAAGUUGUG [JMF's solution 86] (Eterna round: R96, puzzle: Same State NG 1)”, the “apparent KD of MS2 coat protein” value under setting [1] was 40.2 nM.

For “CUUUUUAGUGCAGGAUAUGAUCAACAUGAGGAUCACCCAUGUGGCGUUGUGAGUAGGGAGAGUGAUCAGAAGGGCGUCUCCUCG [SS-NG2-LRO10] (Eterna round: R96, puzzle: Same State NG 2)”, the “apparent KD of MS2 coat protein” value is, setting by setting: (input ligand: FMN 200 uM) 40.7 nM; under setting [1], 55.7 nM; (input ligand: none) 39.2 nM.

On to “AGAUCAUGACGAGGAUAUGGUACAUGAGGAUCACCCAUGUAUGUAUCAUAACGCGAAUGACGAAACCAGAAGGCGUCGUGGUCA [JL SSNG2 1.11] (Eterna round: R96, puzzle: Same State NG 2)”, for which the “apparent KD of MS2 coat protein” value (input ligand: FMN 200 uM) was found to be 10.2 nM, the “apparent KD of MS2 coat protein” value under setting [1] was determined as 14.6 nM and the “apparent KD of MS2 coat protein” value (input ligand: none) stood at 14.9 nM.

As to “AAAAUGGUAUGUUACAUGAGGAUCACCCAUGUACCGUAAUCUGAGGAUAUGGUGAUGUAGAAGAAUCAGAAGGCAGACAUUUAA [AK SSNG3-V2-24.2] (Eterna round: R96, puzzle: Same State NG 3)”, the “apparent KD of MS2 coat protein” value (input ligand: FMN 200 uM) came out at 19.2 nM, the “apparent KD of MS2 coat protein” value under setting [1] came to 26.7 nM and the “apparent KD of MS2 coat protein” value (input ligand: none) stood at 36.1 nM.

On to “GAAAAGGCGACGCAGGAUAUGAAAGGUGAAACAUGAGGAUCACCCAUGUGCUACCUUCCGAUAAAUCAGAAGGGCGACGCCUAGA [Azaanre] (puzzle: Same State 2)”, for which the “apparent KD of MS2 coat protein” value under setting [2] came to 11.4 nM, the “apparent KD of MS2 coat protein” value under setting [3] turned out to be 9.79 nM and the “apparent KD of MS2 coat protein” value under setting [4] is 11.3 nM.

In the case of “GCUCGACGUAUUGUCUACAUGAGGAUCACCCAUGUAGGUGCGGAGGAUAUUUACGUGUCUCAUGUAGAGAAGGUCGUGUCGAGC [SameState NG3 #95] (Eterna round: R96, puzzle: Same State NG 3)”, the “apparent KD of MS2 coat protein” value reads like this: (input ligand: FMN 200 uM) 912 nM; under setting [1], 47.4 nM; (input ligand: none) 46.8 nM.

Regarding “CCCUGAGGUAGCCCACAGGGACAUGAGGAUCACCCAUGUACACAGGAUAUCGAGGGCUCCGCCUUCGAGAAGGGUGAUCAAACU [Geditedi] (Eterna round: R96, puzzle: Same State NG 3)”, the “apparent KD of MS2 coat protein” value is, setting by setting: (input ligand: FMN 200 uM) 148 nM; under setting [1], 18.2 nM; (input ligand: none) 53.4 nM.

Consider “CUACUACAUGAGGAUCACCCAUGUUGUAGUGAUGCAGGAUAUGUGUGACCAGAAGAUGAAACAGAAGGGCAAAGAA [JR_SS!_Sub002] (puzzle: Same State 1)”, for which the “apparent KD of MS2 coat protein” value under setting [2] amounted to 13.5 nM, the “apparent KD of MS2 coat protein” value under setting [3] was determined as 15.9 nM and the “apparent KD of MS2 coat protein” value under setting [4] amounted to 15.2 nM.

As for “GAGAGGAUAUGGAGAGGAUCACCCUCUAGAAGGCUCGAAGGAGAGGAUAUGGAGAGGAUCACCCUCUAGAAGGCUCACUUCUCU [pwkr ssNG3 DX 2xF5 +2xFMN.6] (Eterna round: R96, puzzle: Same State NG 3)”, the “apparent KD of MS2 coat protein” value runs as follows: (input ligand: FMN 200 uM) 256 nM; under setting [1], 105 nM; (input ligand: none) 156 nM.

In the case of “GGUGCCAAAUAAGCCUACAUGAGGAUCACCCAUGUAUGUAGGCAGGAUAUCGUAUGCAAAGCAUACGAGAAGGGCCUAGGCACC [Mat - Same State NG 3 - JL Mod - D63] (Eterna round: R96, puzzle: Same State NG 3)”, the “apparent KD of MS2 coat protein” value by setting is: (input ligand: FMN 200 uM) 18.8 nM; under setting [1], 23.7 nM; (input ligand: none) 41.3 nM.

“UACAAUCUAUCUGAGGAUAUCAUGAAUUAAACAUGAGGAUCACCCAUGUGCAGGAAAACUGCAUAUGAGAAGGCAGAUAGAUUGU [salish99_ss2_r3_060] (puzzle: Same State 2)”: the “apparent KD of MS2 coat protein” value under setting [2] came out at 52.9 nM, the “apparent KD of MS2 coat protein” value under setting [3] is 2.45 nM and the “apparent KD of MS2 coat protein” value under setting [4] worked out at 804 nM.

With “AGUCCAGCCUGAGCUGGACAAAAGCGUGUACAUGAGGAUCACCCAUGUCAUGUACAAGCUUUUUGCUCGUCUUAAUA [Zipper 49 - 6] (puzzle: Sensor for hsa-mir-208a)”, the “apparent KD of MS2 coat protein” value under setting [2] was found to be 106 nM, the “apparent KD of MS2 coat protein” value under setting [3] turned out to be 21.2 nM and the “apparent KD of MS2 coat protein” value under setting [4] is 83.1 nM.
